Paper PMC6072203

Experiments:
[1] = molecular target: JFH1 NS5A 36A (hepatitis C virus genotype 2a (JFH1 strain)); experiment: two-hybrid; Checkmate mammalian two-hybrid: GAL4/BD fusion (pBIND) and VP16/AD fusion (pACT) with the pGL4.3[luc2P/Gal4UAS/Hygro] reporter co-transfected into FT3-7 (Huh-7) cells; lysed at 48 h; F-Luc/R-Luc ratio; for NS5A both fusions carry the same NS5A
[2] = molecular target: JFH1 NS5A 38A; experiment: checkmate mammalian two-hybrid assay; conditions: Huh-7 cells; GAL4/BD-fused and VP16/AD-fused NS5A both carry the mutation; parent: est. 100; read off a plot
[3] = molecular target: JFH1 NS5A 36A; experiment: checkmate mammalian two-hybrid assay; conditions: Huh-7 cells; GAL4/BD-fused and VP16/AD-fused NS5A both carry the mutation; parent: est. 100; read off a plot
[4] = molecular target: H77 NS5A 148A; experiment: mammalian two-hybrid assay; conditions: Huh-7 cells; GAL4/BD-fused and VP16/AD-fused NS5A both carry the mutation; parent: est. 100; read off a plot
[5] = molecular target: H77 NS5A 112A (UniProt P27958); experiment: mammalian two-hybrid assay; conditions: Huh-7 cells; GAL4/BD-fused and VP16/AD-fused NS5A both carry the mutation; parent: est. 100; read off a plot
[6] = molecular target: H77 NS5A 38A (hepatitis C virus genotype 1a (H77 strain)); experiment: two-hybrid; Checkmate mammalian two-hybrid: GAL4/BD fusion (pBIND) and VP16/AD fusion (pACT) with the pGL4.3[luc2P/Gal4UAS/Hygro] reporter co-transfected into FT3-7 (Huh-7) cells; lysed at 48 h; F-Luc/R-Luc ratio; for NS5A both fusions carry the same NS5A
[7] = molecular target: H77 NS5A 36A/37A/38A (mutation group a); experiment: checkmate mammalian two-hybrid assay; conditions: Huh-7 cells; GAL4/BD-fused and VP16/AD-fused NS5A both carry the mutations; parent: est. 100; read off a plot
[8] = molecular target: JFH1 NS5A 112A/148A (mutation group b); experiment: checkmate mammalian two-hybrid assay; conditions: Huh-7 cells; GAL4/BD-fused and VP16/AD-fused NS5A both carry the mutations; parent: est. 100; read off a plot
[9] = molecular target: H77 NS5A 37A; experiment: mammalian two-hybrid assay; conditions: Huh-7 cells; GAL4/BD-fused and VP16/AD-fused NS5A both carry the mutation; parent: est. 100; read off a plot
[10] = molecular target: JFH1 NS5A 37A; experiment: checkmate mammalian two-hybrid assay; conditions: Huh-7 cells; GAL4/BD-fused and VP16/AD-fused NS5A both carry the mutation; parent: est. 100; read off a plot
[11] = molecular target: JFH1 NS5A 36A/37A/38A (mutation group a); experiment: checkmate mammalian two-hybrid assay; conditions: Huh-7 cells; GAL4/BD-fused and VP16/AD-fused NS5A both carry the mutations; parent: est. 100; read off a plot
[12] = molecular target: JFH1 NS5A 36A/37A/38A/112A/148A (both mutation groups combined); experiment: checkmate mammalian two-hybrid assay; conditions: Huh-7 cells; GAL4/BD-fused and VP16/AD-fused NS5A both carry the mutations; parent: est. 100; read off a plot
[13] = molecular target: YFP-fused JFH1 NS5A 148A of HJ3-5/NS5A^YFP (hepatitis C virus genotype 2a (JFH1 strain)); experiment: co-IP; GFP immunoprecipitation (anti-GFP magnetic beads, 1 h, 4 C) of NS5A^YFP from lysates (0.5% Triton X-100, 10 mM Tris-HCl pH 7.5, 150 mM NaCl) of cells electroporated with HJ3-5/NS5A^YFP RNA; core detected by western blot; ratio of co-IP core per IP NS5A^YFP
[14] = molecular target: YFP-fused JFH1 NS5A 37A of HJ3-5/NS5A^YFP (hepatitis C virus genotype 2a (JFH1 strain)); experiment: as above
[15] = molecular target: YFP-fused JFH1 NS5A 38A of HJ3-5/NS5A^YFP (hepatitis C virus genotype 2a (JFH1 strain)); experiment: as above
[16] = molecular target: H77 NS5A 36A/37A/38A/112A/148A (both mutation groups); experiment: checkmate mammalian two-hybrid assay; conditions: Huh-7 cells; GAL4/BD-fused and VP16/AD-fused NS5A both carry the mutations; parent: est. 100; read off a plot
[17] = molecular target: JFH1 NS5A 112A (UniProt Q99IB8); experiment: checkmate mammalian two-hybrid assay; conditions: Huh-7 cells; GAL4/BD-fused and VP16/AD-fused NS5A both carry the mutation; parent: est. 100; read off a plot
[18] = molecular target: H77 NS5A 38A; experiment: mammalian two-hybrid assay; conditions: Huh-7 cells; GAL4/BD-fused and VP16/AD-fused NS5A both carry the mutation; parent: est. 100; read off a plot
[19] = molecular target: H77 NS5A 112A/148A (mutation group b); experiment: checkmate mammalian two-hybrid assay; conditions: Huh-7 cells; GAL4/BD-fused and VP16/AD-fused NS5A both carry the mutations; parent: est. 100; read off a plot

## JFH1 NS5A 36A (natural protein)
[1]
  percent of wt NS5A self-interaction (F-Luc/R-Luc): 20 % of wt

## wild-type full-length NS5A of gt2a HCV JFH1 (from UniProt Q99IB8) 38A
[2]
  percent of parent: 77 % wt

## wild-type full-length NS5A of gt2a HCV JFH1 (from UniProt Q99IB8) 36A
[3]
  percent of parent: 22 % wt

## wild-type full-length NS5A of gt1a HCV H77 (from UniProt P27958) 148A
[4]
  percent of parent: 13 % wt

## wild-type full-length NS5A of gt1a HCV H77 (from UniProt P27958) 112A
[5]
  percent of parent: 27 % wt

## H77 NS5A 38A (natural protein)
[6]
  percent above wt NS5A self-interaction (F-Luc/R-Luc): 30 % above wt

## wild-type full-length NS5A of gt1a HCV H77 (from UniProt P27958) 36A; 37A; 38A
[7]
  percent of parent: 17 % wt

## wild-type full-length NS5A of gt2a HCV JFH1 (from UniProt Q99IB8) 112A; 148A
[8]
  percent of parent: 2.7 % wt

## wild-type full-length NS5A of gt1a HCV H77 (from UniProt P27958) 37A
[9]
  percent of parent: 45 % wt

## wild-type full-length NS5A of gt2a HCV JFH1 (from UniProt Q99IB8) 37A
[10]
  percent of parent: 78 % wt

## wild-type full-length NS5A of gt2a HCV JFH1 (from UniProt Q99IB8) 36A; 37A; 38A
[11]
  percent of parent: 11 % wt

## wild-type full-length NS5A of gt2a HCV JFH1 (from UniProt Q99IB8) 36A; 37A; 38A; 112A; 148A
[12]
  percent of parent: 2.5 % wt

## HCV core protein (H77 core of the chimera HJ3-5) (natural protein)
[13]
  NS5A and core co-IP efficiency against wt (% lower than wt): 50
[14]
  NS5A and core co-IP efficiency against wt (% lower than wt): 50
[15]
  NS5A and core co-IP efficiency against wt (% lower than wt): 50

## wild-type full-length NS5A of gt1a HCV H77 (from UniProt P27958) 36A; 37A; 38A; 112A; 148A
[16]
  percent of parent: 3.3 % wt

## wild-type full-length NS5A of gt2a HCV JFH1 (from UniProt Q99IB8) 112A
[17]
  percent of parent: 110 % wt

## wild-type full-length NS5A of gt1a HCV H77 (from UniProt P27958) 38A
[18]
  percent of parent: 130 % wt

## wild-type full-length NS5A of gt1a HCV H77 (from UniProt P27958) 112A; 148A
[19]
  percent of parent: 11 % wt
